Laboratory results published in the supplement of paper PMC10126150.
± gives the standard deviation of the averaged measurements.

tested on: ATP; test: switch fluorescence ratio, 500 uM ATP over buffer (Cy3 cluster intensity, sum of 5 cycles each) (fold (ratio)); higher = stronger signal-on switching upon ATP binding; sequences stand for … in TCGTCGGCAGCGTCAGATGTGTATAAGAGACAGTTTTTTTTTTTTTTTTTTTTTTTTT…TC; details: aptamer strand: ATP DNA aptamer (quencher-CACCTGGGGGAGTATTGCGGAGGAAGG + anchor), 100 nM annealed; ATP concentration: 500 uM
Method in brief: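 Exposure to 500 uM ATP lasted 15 min at 22 °C before imaging, and a selection-buffer image was taken beforehand, for Cy3-labelled switching-strand clusters on a modified Illumina MiSeq flow-cell annealed to 100 nM quencher-labelled ATP aptamer. Five buffer/ATP cycles were run with NaOH stripping and re-annealing between them. The fluorescence ratio per cluster is summed target-cycle over summed buffer-cycle Cy3 intensity, averaged per switch-domain sequence. Clusters outside 100-1000 RFU were excluded.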

| Sequence | switch fluorescence ratio |
| --- | --- |
| TAGAATTGGT | 0.983 ± 0.016 |
| TAGACAAAAA | 1.08 ± 0.12 |
| TAGACATCCA | 1.048 ± 0.0045 |
| TAGACGCTCA | 1.105 ± 0.0057 |
| TAGACGGGCT | 0.9797 ± 0.0025 |
| TAGACTATGG | 1.04 ± 0.023 |
| TAGACTGGTT | 0.992 ± 0.018 |
| TAGACTTTGG | 0.968 ± 0.025 |
| TAGAGACGGA | 1.0278 ± 0.001 |
| TAGAGATCTG | 0.996 ± 0.014 |
| TAGAGCTGCA | 1.02 ± 0.026 |
| TAGAGCTTAG | 0.9812 ± 0.0037 |
| TAGAGGAG | 1.01 ± 0.05 |
| TAGAGGATGC | 0.998 ± 0.07 |
| TAGAGGCGAA | 1 ± 0.011 |
| TAGAGGCGTT | 0.986 ± 0.012 |
| TAGAGGGGCA | 0.979 ± 0.011 |
| TAGAGGGGGT | 0.998 ± 0.039 |
| TAGAGGTGGG | 1.21 ± 0.34 |
| TAGAGTGATG | 0.943 ± 0.013 |
| TAGAGTTCTC | 1.01 ± 0.013 |
| TAGAGTTTTA | 0.972 ± 0.022 |
| TAGATAGAAC | 0.976 ± 0.054 |
| TAGATCCTTT | 1.03 ± 0.027 |
| TAGATCGAAC | 1.02 ± 0.024 |

| Sequence | switch fluorescence ratio |
| --- | --- |
| TAGATGCGGT | 1.01 ± 0.032 |
| TAGATGTTTA | 1.32 ± 0.6 |
| TAGATGTTTT | 0.986 ± 0.035 |
| TAGATTGTAA | 1.05 ± 0.11 |
| TAGATTGTTT | 0.998 ± 0.021 |
| TAGATTTCTG | 0.989 ± 0.025 |
| TAGCAGTCAA | 1.02 ± 0.02 |
| TAGCCAAGGG | 0.994 ± 0.053 |
| TAGCCCGGTG | 1.47 ± 0.53 |
| TAGCCCTTTT | 0.973 ± 0.01 |
| TAGCGAAGTG | 0.929 ± 0.061 |
| TAGCGAGCGC | 0.988 ± 0.068 |
| TAGCGCGGGA | 1 ± 0.016 |
| TAGCGGCGTC | 1 ± 0.098 |
| TAGCGGGCGC | 0.986 ± 0.032 |
| TAGCGGGGAC | 1.07 ± 0.037 |
| TAGCGGGGCG | 0.9881 ± 0.0061 |
| TAGCGGGGGC | 1.02 ± 0.05 |
| TAGCGGGTTC | 1.055 ± 0.0048 |
| TAGCGGTCTC | 1.03 ± 0.032 |
| TAGCGTAGAA | 0.993 ± 0.046 |
| TAGCTAAATT | 0.99 ± 0.012 |
| TAGCTAATCC | 1.08 ± 0.015 |
| TAGCTAGGTG | 1.62 ± 0.05 |
| TAGCTCGGCT | 0.95364 ± 0.00022 |

| Sequence | switch fluorescence ratio |
| --- | --- |
| TAGCTCGGGC | 1.03 ± 0.019 |
| TAGCTCTAGT | 1.016 ± 0.0044 |
| TAGCTGATGT | 1.03 ± 0.02 |
| TAGCTTGTGG | 0.9912 ± 0.0062 |
| TAGGAAAAAT | 1.09 ± 0.19 |
| TAGGAAAGTG | 1.03 ± 0.054 |
| TAGGAACAGC | 0.98 ± 0.012 |
| TAGGAATCCA | 0.999 ± 0.012 |
| TAGGACCAGC | 0.98 ± 0.012 |
| TAGGACGTGC | 0.9627 ± 0.0032 |
| TAGGACTAGA | 0.9597 ± 0.0039 |
| TAGGAGCGAT | 1.15 ± 0.031 |
| TAGGAGGGCT | 0.985 ± 0.049 |
| TAGGAGGGGT | 0.999 ± 0.022 |
| TAGGAGGTCC | 0.96 ± 0.081 |
| TAGGAGGTGG | 1.03 ± 0.041 |
| TAGGAGGTTC | 0.988 ± 0.021 |
| TAGGAGTGGG | 1 ± 0.01 |
| TAGGAGTTAG | 1 ± 0.047 |
| TAGGAGTTGC | 0.971 ± 0.052 |
| TAGGAGTTTG | 0.9894 ± 0.0046 |
| TAGGATACTT | 0.9769 ± 0.0016 |
| TAGGATGAAG | 1.03 ± 0.011 |
| TAGGATGGAG | 0.97358 ± 0.00078 |
| TAGGATGGGC | 1.04 ± 0.04 |

| Sequence | switch fluorescence ratio |
| --- | --- |
| TAGGATGGGG | 1 ± 0.032 |
| TAGGATGTAT | 0.9864 ± 0.0088 |
| TAGGATTATA | 0.964 ± 0.021 |
| TAGGATTGTA | 0.9806 ± 0.0089 |
| TAGGCAACGA | 1.04 ± 0.063 |
| TAGGCAGGGT | 1.56 ± 0.78 |
| TAGGCATTGG | 0.995 ± 0.014 |
| TAGGCATTTT | 1 ± 0.023 |
| TAGGCCTTAC | 1.43 ± 0.54 |
| TAGGCGTGGT | 1.01 ± 0.017 |
| TAGGCTATAT | 1.01 ± 0.042 |
| TAGGCTGCTG | 0.988 ± 0.021 |
| TAGGCTTTCG | 0.9957 ± 0.0076 |
| TAGGCTTTGG | 0.97 ± 0.0099 |
| TAGGCTTTGT | 1.01 ± 0.021 |
| TAGGGAAAGA | 1 ± 0.014 |
| TAGGGAAGAT | 1.07 ± 0.013 |
| TAGGGACTGG | 0.996 ± 0.016 |
| TAGGGAGGGC | 1.03 ± 0.041 |
| TAGGGATTTG | 1.01 ± 0.014 |
| TAGGGATTTT | 0.986 ± 0.018 |
| TAGGGCATCG | 1.01 ± 0.03 |
| TAGGGCATGT | 0.9798 ± 0.0026 |
| TAGGGCATTG | 1.01 ± 0.012 |
| TAGGGCCAAC | 1.016 ± 0.0092 |
